Laboratory results from the Human Domainome abundance scans (Beltran et al. 2025).

B1: LIM and senescent cell antigen-like-containing domain protein 2, residues 13 to 71; numbered along this chain, Q7Z4I7 (parent)
chain: AVCQRCQARFSPAERIVNSNGELYHEHCFVCAQCFRPFPEGLFYEFEGRKYCEHDFQML

Variants of: B1
Test: abundance fitness (aPCA) (normalised: wild type 0, dead -1); higher = more abundant; growth selection in yeast, the domain comes from the species named
Settings: Homo sapiens

Abundance fitness: each site, then its substitutions
A1: D -0.256 | E 0.161 | G -0.135 | K 0.066 | L -0.149 | N -0.481 | P -0.739 | Q -0.313 | R -0.573 | S 0.002 | T 0.176 | V -0.058 | W -0.327
V2: A -0.53 | C -0.303 | D -0.128 | E -0.081 | F -0.324 | G 0.129 | H -0.238 | I 0.019 | K 0.018 | L -0.144 | M 0.093 | N -0.139 | P -0.274 | R -0.002 | S -0.445 | T 0.011 | W -0.546 | Y -0.097
C3: A -0.682 | D -0.894 | E -0.468 | F -1.11 | G -0.499 | H -1 | I -1.25 | K -1.08 | L -0.705 | M -0.843 | N -0.687 | Q -1.33 | R -1.21 | S -0.832 | T -1.22 | W -0.42 | Y -0.887
Q4: C 0.065 | D 0.357 | E -0.133 | F -0.161 | G -0.127 | H 0.035 | I -0.216 | K -0.007 | L 0.184 | M 0.209 | N 0.679 | P -0.145 | R -0.073 | S 0.029 | T 0.051 | V -0.228 | W -0.528 | Y 0.086
R5: A 0.186 | C -0.379 | D 0.104 | E 0.037 | F -0.347 | G 0.231 | H 0.069 | I 0.078 | K 0.052 | M 0.129 | N -0.081 | P -0.625 | Q 0.066 | S 0.209 | V 0.119 | W -0.184 | Y 0.29
C6: A -0.84 | D -1.03 | E -0.968 | F -0.677 | G -0.757 | H -1.08 | I -1.16 | K -0.469 | M -0.34 | N -0.679 | P -0.896 | Q -0.878 | R -0.544 | S -0.804 | T -0.935 | W -0.769 | Y -0.732
Q7: A 0.057 | C -0.194 | D -0.54 | E -0.668 | F -0.083 | G 0.05 | H 0.003 | I -0.231 | K -0.832 | L 0.068 | M 0.025 | N -0.849 | P -0.802 | S -0.067 | T 0.156 | V -0.121 | W 0.007 | Y -0.11
A8: C 0.03 | D -0.119 | E 0.327 | F -0.039 | G 0.184 | H -0.041 | I 0.073 | K 0.166 | L 0.064 | M 0.151 | N -0.03 | P -0.797 | Q 0.147 | R 0.181 | S 0.076 | T 0.015 | V 0.071 | W 0.109
R9: A -0.104 | C -0.164 | D -0.019 | E -0.084 | F -0.408 | G 0.01 | H -0.047 | I -0.039 | L -0.122 | M -0.075 | N -0.135 | P 0.051 | Q 0.039 | S 0.212 | T -0.019 | V -0.019 | W -0.034 | Y -0.292
F10: A -0.389 | C -0.139 | D -1.05 | H -0.343 | I 0.022 | K -0.548 | L 0.05 | M -0.002 | N -0.607 | P -0.304 | Q -0.707 | R -0.601 | S -0.475 | T -0.093 | W -0.523 | Y -0.359
S11: A 0.137 | C -0.155 | D 0.102 | E 0.019 | F -0.227 | G -0.011 | H -0.407 | I -0.248 | K -0.055 | L -0.053 | M 0.004 | N -0.105 | Q -0.075 | R -0.175 | T -0.087 | V -0.227 | W -0.131 | Y -0.18
P12: A 0.067 | C 0.188 | D 0.145 | E 0.035 | F -0.036 | G -0.047 | H 0.186 | I 0.045 | L -0.059 | M 0.014 | N -0.109 | Q -0.126 | R -0.212 | S 0.014 | T 0.003 | Y -0.093
A13: C -0.176 | D 0.142 | E 0.078 | F -0.781 | G -0.182 | H 0.017 | I -0.581 | K 0.053 | L -0.039 | M -0.22 | N 0.186 | P -0.076 | Q -0.245 | R -0.211 | T 0.035 | V -0.327 | W -0.372 | Y -0.207
E14: A 0.048 | C -0.156 | D -0.075 | F -0.658 | G -0.05 | H -0.451 | I -0.611 | L -0.512 | M -0.41 | N -0.343 | P -0.577 | Q -0.106 | R -0.651 | S -0.034 | T -0.242 | V -0.184 | W -0.428 | Y -0.224
R15: A -0.178 | C -0.198 | D -0.009 | E 0.01 | F -0.467 | G -0.144 | H -0.168 | I -0.017 | K 0.147 | L -0.255 | M -0.069 | N -0.184 | P -0.03 | Q -0.021 | S 0.098 | T 0.037 | V -0.107 | W -0.595 | Y -0.153
I16: A -0.1 | C -0.069 | D -0.267 | E -0.341 | G -0.178 | K 0.098 | L -0.023 | M 0.026 | N -0.174 | P -0.104 | Q -0.069 | R -0.114 | S -0.04 | T 0.07 | V -0.194 | W -0.146 | Y -0.2
V17: C -0.298 | D -0.298 | E -0.251 | F -0.019 | G -0.372 | H 0.01 | I 0.009 | K 0.03 | L -0.003 | M -0.248 | N -0.147 | P -0.727 | R -0.117 | T -0.048 | W -0.492 | Y -0.262
N18: A -0.227 | C -0.089 | D -0.068 | E -0.116 | F 0.11 | G -0.15 | H -0.281 | I -0.244 | K -0.411 | L -0.615 | M -0.323 | P -0.191 | Q -0.06 | R -0.202 | S -0.333 | T -0.312 | V -0.316 | W -0.639 | Y -0.603
S19: A -0.106 | C -0.117 | D 0.058 | E -0.015 | F -0.22 | G 0.015 | H -0.19 | I -0.151 | K -0.189 | L -0.132 | P -0.29 | Q -0.068 | R 0.113 | T -0.064 | V -0.187 | W -0.16 | Y -0.455
N20: A -0.005 | C -0.038 | D 0.313 | E -0.282 | F -0.359 | G 0.084
